Literature values, collected in article PMC9265785.

Biological target: Pex5 (Saccharomyces cerevisiae) (UniProt P35056)
Chain of UniProt P35056 (P35056 whole entry): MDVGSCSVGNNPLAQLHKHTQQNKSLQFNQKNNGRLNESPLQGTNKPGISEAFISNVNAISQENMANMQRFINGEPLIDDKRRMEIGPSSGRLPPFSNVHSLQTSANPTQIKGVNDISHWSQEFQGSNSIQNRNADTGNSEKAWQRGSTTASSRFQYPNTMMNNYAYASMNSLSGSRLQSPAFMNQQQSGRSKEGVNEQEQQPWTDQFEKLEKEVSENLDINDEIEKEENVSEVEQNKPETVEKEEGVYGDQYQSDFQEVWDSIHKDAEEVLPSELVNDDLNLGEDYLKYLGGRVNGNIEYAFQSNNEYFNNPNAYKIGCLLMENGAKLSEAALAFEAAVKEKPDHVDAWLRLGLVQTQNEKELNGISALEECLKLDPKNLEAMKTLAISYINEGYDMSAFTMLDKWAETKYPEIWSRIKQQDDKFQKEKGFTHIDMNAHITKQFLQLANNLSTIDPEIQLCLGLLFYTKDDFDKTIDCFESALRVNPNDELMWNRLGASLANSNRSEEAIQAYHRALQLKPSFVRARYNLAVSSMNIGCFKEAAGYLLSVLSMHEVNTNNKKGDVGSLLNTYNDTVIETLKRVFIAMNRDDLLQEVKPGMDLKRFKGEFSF

## Pex1 (from UniProt P24004)
  Kd: 1000 nM
